Tested on: Escherichia coli TOP10
Experiment: shrunken log2 fold change of peptide-encoding DNA abundance (4.5 h post-induction vs induction); higher = less antimicrobial activity (less host growth inhibition)
Details: time post-induction: 4.5 h; library: site-saturation at positions 5, 18, 19, 20
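Also: peptides expressed intracellularly from a pBAD plasmid library in pooled LB shake-flask culture, induced with 0.3% L-arabinose, DNA abundance read by NGS, three biological replicates, DESeq2 with apeglm shrinkage.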

## RRIRIRPPRLPRPRPRPNHHPRP
  shrunken log2 fold change: -0.868

## RRIRWRPPRLPRPRPRPYGYPRP
  shrunken log2 fold change: -0.345

## RRIRVRPPRLPRPRPRPVYMPRP
  shrunken log2 fold change: -0.184

## RRIRPRPPRLPRPRPRPWAHPRP
  shrunken log2 fold change: -0.00675

## RRIRIRPPRLPRPRPRPNLTPRP
  shrunken log2 fold change: 0.0979

## RRIRCRPPRLPRPRPRPKFLPRP
  shrunken log2 fold change: -0.258

## RRIRFRPPRLPRPRPRPKFRPRP
  shrunken log2 fold change: -0.0326

## RRIRTRPPRLPRPRPRPVLAPRP
  shrunken log2 fold change: 0.479

## RRIRARPPRLPRPRPRPSGVPRP
  shrunken log2 fold change: -0.136

## RRIRFRPPRLPRPRPRPKCCPRP
  shrunken log2 fold change: -0.149

## RRIRCRPPRLPRPRPRPYGAPRP
  shrunken log2 fold change: -0.569

## RRIRSRPPRLPRPRPRPIARPRP
  shrunken log2 fold change: 0.029

## RRIRARPPRLPRPRPRPLNPPRP
  shrunken log2 fold change: -0.111

## RRIRNRPPRLPRPRPRPSDEPRP
  shrunken log2 fold change: -0.189

## RRIRPRPPRLPRPRPRPASSPRP
  shrunken log2 fold change: 0.0138

## RRIRNRPPRLPRPRPRPKHLPRP
  shrunken log2 fold change: -0.403

## RRIRHRPPRLPRPRPRPVWAPRP
  shrunken log2 fold change: 0.193

## RRIRWRPPRLPRPRPRPRRKPRP
  shrunken log2 fold change: 0.178

## RRIRVRPPRLPRPRPRPTRFPRP
  shrunken log2 fold change: 0.0403

## RRIRARPPRLPRPRPRPGDCPRP
  shrunken log2 fold change: 0.366

## RRIRVRPPRLPRPRPRPVPLPRP
  shrunken log2 fold change: -0.121

## RRIRVRPPRLPRPRPRPMTAPRP
  shrunken log2 fold change: -0.12

## RRIRLRPPRLPRPRPRPHNCPRP
  shrunken log2 fold change: -0.192

## RRIRIRPPRLPRPRPRPVLMPRP
  shrunken log2 fold change: -0.229

## RRIRSRPPRLPRPRPRPHHNPRP
  shrunken log2 fold change: -0.708

## RRIRIRPPRLPRPRPRPFKVPRP
  shrunken log2 fold change: -0.0829

## RRIRLRPPRLPRPRPRPCWKPRP
  shrunken log2 fold change: 0.00126

## RRIRLRPPRLPRPRPRPQQTPRP
  shrunken log2 fold change: 0.168

## RRIRTRPPRLPRPRPRPFRSPRP
  shrunken log2 fold change: -0.144

## RRIRVRPPRLPRPRPRPGPNPRP
  shrunken log2 fold change: 0.0445

## RRIRCRPPRLPRPRPRPEQQPRP
  shrunken log2 fold change: -0.0118

## RRIRGRPPRLPRPRPRPQRMPRP
  shrunken log2 fold change: 0.307

## RRIRKRPPRLPRPRPRPQFLPRP
  shrunken log2 fold change: 0.0482

## RRIRKRPPRLPRPRPRPHLMPRP
  shrunken log2 fold change: -0.129

## RRIRNRPPRLPRPRPRPKGVPRP
  shrunken log2 fold change: 2.97

## RRIRNRPPRLPRPRPRPACCPRP
  shrunken log2 fold change: 0.236

## RRIRDRPPRLPRPRPRPHDEPRP
  shrunken log2 fold change: 0.167

## RRIRWRPPRLPRPRPRPVLAPRP
  shrunken log2 fold change: 0.582

## RRIRWRPPRLPRPRPRPSDDPRP
  shrunken log2 fold change: 0.328

## RRIRCRPPRLPRPRPRPCQCPRP
  shrunken log2 fold change: -0.208

## RRIRKRPPRLPRPRPRPWLVPRP
  shrunken log2 fold change: 0.177

## RRIRGRPPRLPRPRPRPKEPPRP
  shrunken log2 fold change: 0.875

## RRIRFRPPRLPRPRPRPFEFPRP
  shrunken log2 fold change: -0.183

## RRIRHRPPRLPRPRPRPHYNPRP
  shrunken log2 fold change: -1.11

## RRIRTRPPRLPRPRPRPGHIPRP
  shrunken log2 fold change: -0.289

## RRIRRRPPRLPRPRPRPQPFPRP
  shrunken log2 fold change: -0.0201

## RRIRARPPRLPRPRPRPKMFPRP
  shrunken log2 fold change: -0.0487

## RRIRARPPRLPRPRPRPKFAPRP
  shrunken log2 fold change: 0.306

## RRIRTRPPRLPRPRPRPCIAPRP
  shrunken log2 fold change: -0.226

## RRIRKRPPRLPRPRPRPVLDPRP
  shrunken log2 fold change: 0.0689

## RRIRCRPPRLPRPRPRPAIPPRP
  shrunken log2 fold change: -0.246

## RRIRQRPPRLPRPRPRPSDFPRP
  shrunken log2 fold change: -0.128

## RRIRVRPPRLPRPRPRPWLQPRP
  shrunken log2 fold change: -0.0274

## RRIRMRPPRLPRPRPRPWDEPRP
  shrunken log2 fold change: 0.391

## RRIRERPPRLPRPRPRPVLHPRP
  shrunken log2 fold change: -0.0594

## RRIRIRPPRLPRPRPRPQNYPRP
  shrunken log2 fold change: -0.428

## RRIRTRPPRLPRPRPRPHYAPRP
  shrunken log2 fold change: -0.11

## RRIRERPPRLPRPRPRPYNQPRP
  shrunken log2 fold change: -0.0858

## RRIRKRPPRLPRPRPRPVYYPRP
  shrunken log2 fold change: -0.094

## RRIRTRPPRLPRPRPRPEWDPRP
  shrunken log2 fold change: 0.064

## RRIRHRPPRLPRPRPRPFCVPRP
  shrunken log2 fold change: -0.312

## RRIRWRPPRLPRPRPRPKAWPRP
  shrunken log2 fold change: 0.743

## RRIRSRPPRLPRPRPRPYPSPRP
  shrunken log2 fold change: -0.203

## RRIRNRPPRLPRPRPRPMLTPRP
  shrunken log2 fold change: -0.296

## RRIRERPPRLPRPRPRPGWGPRP
  shrunken log2 fold change: 0.521

## RRIRLRPPRLPRPRPRPGENPRP
  shrunken log2 fold change: -0.00192

## RRIRGRPPRLPRPRPRPHYGPRP
  shrunken log2 fold change: -0.627

## RRIRDRPPRLPRPRPRPEMYPRP
  shrunken log2 fold change: 0.363

## RRIRWRPPRLPRPRPRPCMRPRP
  shrunken log2 fold change: 0.506

## RRIRQRPPRLPRPRPRPFTIPRP
  shrunken log2 fold change: 0.0944

## RRIRNRPPRLPRPRPRPRKFPRP
  shrunken log2 fold change: -0.101

## RRIRCRPPRLPRPRPRPSRPPRP
  shrunken log2 fold change: 0.245

## RRIRTRPPRLPRPRPRPHRDPRP
  shrunken log2 fold change: 0.129

## RRIRFRPPRLPRPRPRPHIEPRP
  shrunken log2 fold change: -0.0641

## RRIRTRPPRLPRPRPRPLYKPRP
  shrunken log2 fold change: -0.274

Reference: the supplement of paper PMC9112550, “Optimization of the antimicrobial peptide Bac7 by deep mutational scanning” (BMC Biology, 2022)
